Holding throughout (assay): GO/AuNP colorimetric aptasensor
Series [1] addresses T1, beta-lactoglobulin (milk (species ), UniProt P02754 17-178).
T1 sequence: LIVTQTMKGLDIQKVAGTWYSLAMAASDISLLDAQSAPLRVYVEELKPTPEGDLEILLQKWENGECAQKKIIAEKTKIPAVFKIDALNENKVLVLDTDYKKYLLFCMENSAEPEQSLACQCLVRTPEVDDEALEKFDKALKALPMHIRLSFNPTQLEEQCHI

Series [2] deals with T2, arachin (Ara h 1) (peanut, UniProt P43238 85-626).
T2 sequence: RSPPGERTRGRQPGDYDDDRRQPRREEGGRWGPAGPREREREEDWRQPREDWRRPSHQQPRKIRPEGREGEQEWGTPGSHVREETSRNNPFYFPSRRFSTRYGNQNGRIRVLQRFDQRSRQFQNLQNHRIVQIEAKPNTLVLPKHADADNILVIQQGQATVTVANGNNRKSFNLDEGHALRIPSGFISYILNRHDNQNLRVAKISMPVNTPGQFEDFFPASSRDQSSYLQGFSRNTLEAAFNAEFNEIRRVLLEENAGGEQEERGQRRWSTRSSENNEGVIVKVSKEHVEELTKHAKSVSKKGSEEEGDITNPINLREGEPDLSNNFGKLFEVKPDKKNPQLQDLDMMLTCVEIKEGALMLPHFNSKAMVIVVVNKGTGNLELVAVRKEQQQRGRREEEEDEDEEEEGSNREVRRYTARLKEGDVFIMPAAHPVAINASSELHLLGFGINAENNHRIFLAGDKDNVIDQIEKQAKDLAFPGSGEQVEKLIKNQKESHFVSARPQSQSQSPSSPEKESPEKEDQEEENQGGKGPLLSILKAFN

Series [3] addresses tropomyosin (Pen a 1) (shrimp (species ), UniProt Q3Y8M6 1-284).

Sequence of tropomyosin (Pen a 1) (Q3Y8M6 whole entry): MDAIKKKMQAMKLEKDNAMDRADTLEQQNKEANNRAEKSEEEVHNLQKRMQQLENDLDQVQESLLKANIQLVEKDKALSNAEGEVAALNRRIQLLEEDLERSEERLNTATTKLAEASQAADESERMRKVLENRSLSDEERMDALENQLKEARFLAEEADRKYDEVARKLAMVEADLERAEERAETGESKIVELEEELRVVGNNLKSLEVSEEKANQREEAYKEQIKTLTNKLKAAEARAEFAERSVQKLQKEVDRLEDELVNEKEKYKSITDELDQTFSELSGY

B1: beta-lactoglobulin (milk) aptamer (ssDNA)
DNA: ATACCAGCTTATTCAATTCGACGATCGGACCGCAGTACCCACCCACCAGCCCCAACATCATGCCCATCCGTGTGTGAGATAGTAAGTGCAATCT
modifications: biotin (position not given)
Take B1: the binding result in series [1] was “binds”.

B2: arachin (peanut) aptamer (ssDNA)
DNA: TCGCACATTCCGCTTCTACCGGGGGGGTCGAGCGAGTGAGCGAATCTGTGGGTGGGCCGTAAGTCCGTGTGTGCGAA
modifications: biotin (position not given)
For B2, in series [2], the binding result was “binds”.

B3: tropomyosin (shrimp) aptamer (ssDNA)
DNA: TACTAACGGTACAAGCTACCAGGCCGCCAACGTTGACCTAGAAGCACTGCCAGACCCGAACGTTGACCTAGAAGC
modifications: biotin (position not given)
Turning to B3, the binding result in series [3] is recorded as “binds”.

The record behind these values is paper doi:10.1101/343368.
